Experimental data as given in the nanobody polyreactivity screen of Harvey et al. (2022).

Assay: yeast display, Sf9 membrane polyspecificity reagent, FACS + sequencing; frameworks hold sequencing errors
Outline: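 Galactose induction of a Saccharomyces cerevisiae BJ5465 synthetic nanobody display library ran 36–48 hours. The cells were then stained for 1 hour at 4 °C with 10% biotinylated, detergent-solubilized Sf9 membrane reagent, pulled down on streptavidin microbeads and FACS-sorted into low and high (top ~1%) gates on expression and reagent-binding fluorescence. Labels for polyreactivity follow the gate of origin.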

In the case of “QDQLVESGGGLVQAGGSLRLSCAASGITFVYYAMGWYRQAPGKERELVAAITGSGDSTYYADSVKGRFTISRDNAKNTVYLQMNSLKPEDTAVYYCAAEAWWYGGFGYWGQGTQVTVSS”, the “polyreactivity (PSR sort gate)” value is reported as “high polyreactivity”.
In the case of “QVQLVESGGGLVQAGGSLRLSCAASGSTFTYYAMGWYRQAPGKERELVAAITGSDGRTYYADSVKGRFTISRDNAKNTVYLQMNSLKPEDTAVYYCAAYFTRYDFRWHTYYYWGQGTQVTVSS”, the “polyreactivity (PSR sort gate)” value is reported as “low polyreactivity”.
In the case of “QVQLVESGGGLVQAGGSLRLSCAASGSTFTGNDMGWYRQAPGKERELVASIRRGDRTYYADSVKGRFTISRDNAKNTVYLQMNSLKREDTAVYYCAKPVWWRVYRHGGRFGYWGQGTQVTVSS”, the “polyreactivity (PSR sort gate)” value is reported as “low polyreactivity”.
With “QVQLVESGGGLVQAGGSLRLSCAASGSIFPGYTMGWYRQAPGKERELVAAISWSDGSTYYADSVKGRFTISRDNAKNTVYLQMNSLKPDDTAVYYCNRDYRGPYYYWGQGTQVTVSS” the “polyreactivity (PSR sort gate)” value was “high polyreactivity”.
With “QVQLVESGGGLVQAGGSLRLSCAASGRIFWSYAMGWYRQAPGKEREFVAVITWSGGSTYYADSVKGRFTISRDNAKNTVYLQMNSLKPEDTAVYYCAAGQWWYQVRFDYWGQGTQVTVSS” the “polyreactivity (PSR sort gate)” value was “low polyreactivity”.
For “QVQLGESAGGLVQAGGSLRLSCAASGFTFYPYAMGWYRQAPGKEREFVAAITWRGASTYYADSVKGRFTISRDNGKNTVYLQMNSLKPEDTAVYYCNARWRVPRGYDYWGQGTQVTVSS”, the “polyreactivity (PSR sort gate)” value was “high polyreactivity”.
With “QVQLVESGAGIVQAGGSLRLSCAASGIIFNLYAMGWYRQAPGKERELVASISIGGSTNYADSVKGRFTISRDNAKNTVYLQMNSLKPEDTAVYYCAAALYEATYDANGLDMDYWGQGTQVTVSS” the “polyreactivity (PSR sort gate)” value was “high polyreactivity”.
For “QVQLVESGGGLVQAGGSLRLSCAASGSIFQINAMGWYRPAPGKERECVASITYSGGSTYYADSVKGRFTISRDNAKNTVYLQMNSLKPEDTAVYYCAAESYWGYDYWGQGTQVTVSS”, the “polyreactivity (PSR sort gate)” value was “high polyreactivity”.
In the case of “QVQLVESGGGLVQAGGSLRLSCAASGSIFGYNVMGGDRQAPGKEREFVARINYIGSSTYYADSVKGRFTISRDNAKNTVYLQMNSLKPEDTADYYCNADNARGRSGVRRYYWGQGTQVTVSS”, the “polyreactivity (PSR sort gate)” value is reported as “high polyreactivity”.
With “QFQLVESGGGLVQAGGSLRLSCAASGSIFIYYAMGWYRQAPGKEREFVAAITRSGGSTFYADSVKGRFTISRDNAKNTVYLQMNSLKPEDTAVYYCATSYEGYYSIIGNKYDYWGQGTQVTVSS” the “polyreactivity (PSR sort gate)” value was “high polyreactivity”.
With “QVQLVESGGGLVQAGGSLRLSCAASGGICGYYAMGWYRQAPGKERELVAAISWTGGSTYYADSVKGRFTISRDNAKNTVYLQMNSLKPEDTAVYYCAASDSFGYDYWGQGTQVTVSS” the “polyreactivity (PSR sort gate)” value was “high polyreactivity”.
With “QVQLEESGGGLVQAGGSLRLSCAASGFTFAYYAMGWYSQAPGKERELVAAISRSGGRTNYADSVKGRFTISRDNAKNTVYLQMNSLKPEETAVYYCNKQQTPRYWWSPYGGYDYWGQGTQGTVSS” the “polyreactivity (PSR sort gate)” value was “high polyreactivity”.
In the case of “QVQLVESGGGLVQAGGSLRLSCASSGSIFEANDMGWYRQAPGKEREFVADIDANSGSTYYADSVKGRFTISRDNAKNTVNLQMNSLKPEDTADYYCNAQVYLHTAYDYWGQVTQVTVSS”, the “polyreactivity (PSR sort gate)” value is reported as “low polyreactivity”.
In the case of “QVQLVESGGGLVQAGGSLRLSCAASGFTFSTYTMGWYRQAPGKERELVAAIRRSGDSTYYADSVKGRFTISRDNAKNTVYLQMNSLKPEDTAVYYCNAVRYRFERFDYWGQGTQVTVSS”, the “polyreactivity (PSR sort gate)” value is reported as “high polyreactivity”.
With “QVQLVESGGGLVQAGGSLRLSCAASGSIFRAYAMGWYRQAPGKEGELVATITSGGRTNYADSVKGRFTISRDNAKNTVYLQMNSLKPEDTAVYYCNADHWLYYGAGYDYWGQGTQVTVSS” the “polyreactivity (PSR sort gate)” value was “low polyreactivity”.
With “QVQLVESGGGLVQAGGSLRLSCAASGRIFYRNAMGWYRQSPGKERELVAAINWSGGSTYYAYSVKGRFTISRDNAKNTVYLQMNSLKPEDTAVYYCATGYRQGEYDYWGQGTQVTLSS” the “polyreactivity (PSR sort gate)” value was “low polyreactivity”.
For “QVQLVESGGGLVQAGGSLRLSCAASGLIFITYAMGWYRQAPGKERELVATITLRGGSTYYADSVKGRFTISRDNAKNTVYLQMNSLKPEDTAVYYCAADVGYWGRSSGYPSDDYDYWGQGTQVTVSS”, the “polyreactivity (PSR sort gate)” value was “low polyreactivity”.
For “QVQLVESGGGLVQAGGSLRLSCAASGSTLYRYTMGWYRQAPGKERELVAAISSGGNTYYADSVKGRFTISRDNAKNTVYLQMNSLKPEDTAVYYCAAEDSVYIPYYDAYDYWGQGTQVTVSS”, the “polyreactivity (PSR sort gate)” value was “low polyreactivity”.
With “QVQLVESGGGLVQAGGSLRLSCAASGSIFYINDMGWYRQAPGKERELVAAISWSGGTTYYADSVKVRFTISRDNAKNTVYLQMNSLKPEDTAVYYCATDYFFLFPWGLSDYWGQGTQVTVSS” the “polyreactivity (PSR sort gate)” value was “low polyreactivity”.
In the case of “QVQLVESGGGLVQAGGSLRLSCAASGSIFGFNAMGWYRQAPGKERELVAGITSGDRTNYADSVKGRFTISRDNAKNTVYLQMNSLKPEDTAVYYCAARKYVFFKMYYWGQGTQVTVSS”, the “polyreactivity (PSR sort gate)” value is reported as “low polyreactivity”.
In the case of “QVQLVESGGGLVQAGGSLRLSCAASGFTFVNYVMGWYRQAPGKERELVAAISRSGGSTYYADSVKGRFTISRDNAKNTVYLQMNSLIPEDTAVYYCAARWFYRAGFNYWGQGTQVTVSS”, the “polyreactivity (PSR sort gate)” value is reported as “high polyreactivity”.
With “QVQLVESGGGLVQAGGSLRLSCAASGSIFKYYAMGWYRQAPGKERELVAAISNGGSTNYADSLKGRFTISRDNAKNTVYLQMNSLKPEDTAVYYCAAGWFGYSAKYDYWGQGTRVTVSS” the “polyreactivity (PSR sort gate)” value was “high polyreactivity”.
With “QVQLVESGGGLVQAGGSLRLSCAASGLIFVDNAMGWYRQAPGKERELVAAIDSGGSTNYADSVKGRFTISRDNAKNTVYLQMNSLKPEDTAVYYCAADWIYAPWYYQESVEYYYWGQGTQVTVSS” the “polyreactivity (PSR sort gate)” value was “low polyreactivity”.
With “QVQLVESGGGLVQAGGSLRLSCAASGRISVFNAMGWYRHAPGKERELVAAITSGGSTNYADSVKGRFTISRDNAKNTVYLQMNSLKPEDTAVYYCNADVYHSHEPHYDYWGQGTQVTVSS” the “polyreactivity (PSR sort gate)” value was “low polyreactivity”.
With “QVQLVESGGGLVQAGGSLRLSCAASGRIIARYTMGWYRQAPGKERELVAAITRGSSTYYADSVKGRFTISRDNALNTVFLHMNSQKPEDTAVNYCAKVYVVKSRYVYWGKGTQVTVSS” the “polyreactivity (PSR sort gate)” value was “low polyreactivity”.
For “QVQLVESGGGLVQAGGSLRLSCAASGFTFAKYAMGWYRQAPGKERELVAAISSNGGTTYYADSVKGRFTISRDNAKNTVYLQMNSLKPEDTAVYYCAVRSRVYPSRVKYDYWGQGTQVTVSS”, the “polyreactivity (PSR sort gate)” value was “high polyreactivity”.
In the case of “QFQLVESGGGLLQAGGSLRLSCAASGFTFSYNAKGWYRKAPGKERELVAAISSSGGSTYYADSVKGRFTISRDNAKNTVYLQMNILKPEDPSVYYCAVPYLTLYGRSYDYWGQGTQVTVSS”, the “polyreactivity (PSR sort gate)” value is reported as “high polyreactivity”.
For “QVQLVESGGGLVQAGGSLRLSCAASGGTFAFYAMGWYRQAPGKERELVAAITSGGRTYYADSVKGRFTISRDNAKNTVYLQMKRLKPEDTAVYYCNADWVDHYYVGYDYWGQGTQVTVSS”, the “polyreactivity (PSR sort gate)” value was “low polyreactivity”.
In the case of “QVQLVETGGGLVQAGGSHSLSCAAAGSTFSRYAMGWYRQAPGTETELVAGISWSGGNTYYADSVKGRVTISRDNAKNTVYLQMNSLKPEETAVYYCAADFLEYWVVYGWAEYEYWAQGTQVTVSS”, the “polyreactivity (PSR sort gate)” value is reported as “low polyreactivity”.
For “QVQLVESGGGLVQAGGSLRLSCAASGSTFPRYAMGWYIPAPGNERELVAAISSGGSTYYADSVKGRFTISRDNAKNTVYLQMNSLKPEDTAVYYCNARRSRSRYDYWGQGTQVTVSS”, the “polyreactivity (PSR sort gate)” value was “high polyreactivity”.
For “QVQLVESGGGLVQAGGSLRLSCAASGSTFDAYAMGWYRQAPGKERQLVAAITHGGSTNYADSVKGRFTISRDNAKNTVYLQMNSLKPEDTAVYYCNAQHRTVWGIFGRFNYWGQATQVTVSS”, the “polyreactivity (PSR sort gate)” value was “low polyreactivity”.
In the case of “QVQLVESGGGLVQAGGSLRLSCAASGLIFVFNTLGWYRQAPGKEMELVAVITSGGSTNYADSVKGRFTISSDNEKNTVYLQMISLKPEDTAVYYCNVDRQVITGRYIGDYWGEGTQVTVSS”, the “polyreactivity (PSR sort gate)” value is reported as “low polyreactivity”.
For “QVQLVESGGGLVQAGGSLRLSCAASGYTFVIYAMGWYRQAPGKERELVAAITTIGGRTYYADSVKGRFTISRDNAKNTVYLQMNSLKPEDTAVYYCAADIRSYRLYDGGYWGQGTQVTVSS”, the “polyreactivity (PSR sort gate)” value was “low polyreactivity”.
In the case of “QVQLVESGGGLVQAGGSLRLSCAASGFTFVPNTMGWYRQAPGKERELVARIRWRGGSTYYADSVKGRFTISRDNAKNTVYLQMNSLKPEDTAVYYCNAVRGYDARPYSEVYHGEKYYYWGQGTQVTVSS”, the “polyreactivity (PSR sort gate)” value is reported as “low polyreactivity”.
In the case of “HVQLVESGGGLVQAGGSLRLSCAASGLTFQYNAMGWYRQAPGKERELVATISQSGGSTYYADSVKGRFTISRDNAKNTVYLQMNSLKPEDTAVYYCAAYRAWTWRIRYDYWGQGTQVTVSS”, the “polyreactivity (PSR sort gate)” value is reported as “low polyreactivity”.
With “QDQLLESGGGLVQAGGSLRLSCAASGSILQDYAMGWYRQAPGKERELVAAISNSGDSTYYADSLKGRFTISRENAKTTVYLQLNSLKPEDTAVYYCNAAVYPYAMYSGGLDYDYWGHGTQVTVSS” the “polyreactivity (PSR sort gate)” value was “low polyreactivity”.
For “QVQLVESGGGLVQAGGSLRLSCAASGSTFYPYAMGWYRQAPGNERELVAAITGTGGSTYYADSVKGRFTISRDNAKNTVYLQMNSLKPEDTAVYYCATRRRYYYSRYNYWGQGTQVTVSS”, the “polyreactivity (PSR sort gate)” value was “high polyreactivity”.
In the case of “QVQLVESGGGLVQAGGSLRLSCAASGRIFDEYAMGWYRQAPGKERELVAAITSDGTTNYADSVKGRFTISRDNAKNTVYLQMNSLKPEDTAVYYCNAARPQSEPASQLDLYGYDYWGQGTQVTVSS”, the “polyreactivity (PSR sort gate)” value is reported as “low polyreactivity”.
For “QVQLVESGGGLVQAGGSLRLSCAASGSIFDVYGMGWYRQAPGKERELVARITSAGNTDYADSVKGRFTISRDNAKNTVYLQRNSLKPEDTAVYYCARDYVWFYGDTDFYYYLFDYWGQGTQVTVSS”, the “polyreactivity (PSR sort gate)” value was “low polyreactivity”.
With “QVQLVESGGGLVQAGGSLRLSCAASGSIFSSNAMGWYRQAPGKERELVASIRRGGSTYYADSVKGRFTISRDNAMNTVYLQMNSLKPEDTAVYDCARRYVPWYATYDHWGQGTQVTVSS” the “polyreactivity (PSR sort gate)” value was “high polyreactivity”.
In the case of “QVQLVESGGGLVQAGGSLRLSCAASGLTFSRYAMGWYRQAPGKERELVATIRSAGSTYYADSVKGRFTISRDNAKNTVYLQMNTLKPEDTAVYYCATAPYYHVKQRYYYWGQGTQVTVSS”, the “polyreactivity (PSR sort gate)” value is reported as “high polyreactivity”.
With “QVQLVESGGGLVQAGGSLRLSCAASGIIFYGNVMGWYRQAPGKERELVAAITSTGSTSYADSVKGRFTMSRDNGKNTVYLQMNSLKPEDTAVYYCAADNAVWEYDYWGQGTQVTVSS” the “polyreactivity (PSR sort gate)” value was “low polyreactivity”.
With “QVQLVESGGGLVQAGGSLRLSCAASGSIFKAYAMGWYRQAPGKERELVAAISTSDGSTYYADSVKGRFTISRDNAKNNVYLLMNSLKPEDTAVYYCATEYDYWDDSYDYWGQGTQVTVSS” the “polyreactivity (PSR sort gate)” value was “low polyreactivity”.
